Results: patent US7820795B2, “Lactobacillus fermentum N-desoxyribosyl transferases and the use thereof for enzymatic synthesis of 2′, 3′—didesoxynucleosides and 2′,3′- didehydro-2′,3′- didesoxynucleosides” (Institut Pasteur, priority 2004, dated 2010)
Each block holds one molecule with its values, some of them ahead of it.

How the values were obtained:
[1] = biological target: T1, Lactobacillus fermentum N-deoxyribosyl transferase (NTD) variant LFA15T, mutation A15T, SEQ ID No. 4 (Limosilactobacillus fermentum, UniProt Q6YNI5, A15T); assay: Enzymatic activity tests (dT+C, ddT+C and d4T+C reactions), mutated enzyme LFA15T; type: biochemical; details: mutant LFA15T; deoxyribosyl donor + C (cytosine)
T1 construct: crude extract or purified
T1 sequence (Q6YNI5 1-168 A15T): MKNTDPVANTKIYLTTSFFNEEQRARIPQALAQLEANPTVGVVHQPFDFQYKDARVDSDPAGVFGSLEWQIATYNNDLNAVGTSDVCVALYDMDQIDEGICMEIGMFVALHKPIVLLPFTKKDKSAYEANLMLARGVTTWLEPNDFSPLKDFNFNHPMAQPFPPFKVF
Protocol: (§1) The sequencing of the plasmids present in the selected transformants of PAK 9 made it possible to identify a mutation in the sequence (ntd) having the effect of substituting a residue T for the residue A in position 15 in the corresponding protein sequence (SEQ ID No. 2) (mutation called A15T).
50 μl of enzymatic extract is added to 200 μl of 100 mM citrate buffer, pH 6.44, in the presence of 3 mM ddU or dU final and of 1 mM C final for the strain PAK9, the whole is incubated at 37° C. The progress of the reaction is monitored by TLC (silica; eluent: MeOH—CH2Cl2 (20/80)). […] The disappearance of the substrates and the formation of the products were also quantified by HPLC analysis. […]
(§2) The cells are then centrifuged for 15′ at 4000 rpm at 4° C., washed in 50 ml of phosphate buffer then the pellet obtained after centrifugation is preserved overnight at −20° C. […] The fractions are then analyzed by SDS-PAGE gel and the enzymatic activity determined. […] The protein concentration is determined by measuring the OD at 280 nm. […]
The enzymatic activities of the native and mutant N-deoxyribosyl transferases of L. leichmannii (LL and LL G9S) and of L. fermentum (LF and LFA15T) in the exchange reactions dT+C ? dC+T, ddT+C ? ddC+T and d4T+C ? d4C+T were evaluated starting from crude extracts or purified proteins. […]

[2] = biological target: T2, Lactobacillus fermentum N-deoxyribosyl transferase (NTD, LF), native/wild type, SEQ ID No. 2 (Limosilactobacillus fermentum, UniProt Q6YNI5); assay: Enzymatic activity tests (dT+C, ddT+C and d4T+C reactions), native enzyme LF; type: biochemical; details: deoxyribosyl donor + C (cytosine)
T2 construct: crude extract or purified
T2 sequence (Q6YNI5 1-168): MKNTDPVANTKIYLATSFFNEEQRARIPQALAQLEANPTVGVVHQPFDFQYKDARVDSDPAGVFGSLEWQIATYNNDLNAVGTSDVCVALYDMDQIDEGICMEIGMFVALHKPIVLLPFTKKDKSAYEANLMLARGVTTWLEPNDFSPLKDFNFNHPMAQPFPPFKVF
Protocol: (§3) 50 μl of enzymatic extract is added to 200 μl of 100 mM citrate buffer, pH 6.44, in the presence of 3 mM ddU or dU final and of 1 mM C final for the strain PAK9, the whole is incubated at 37° C. The progress of the reaction is monitored by TLC (silica; eluent: MeOH—CH2Cl2 (20/80)). […] The disappearance of the substrates and the formation of the products were also quantified by HPLC analysis. The different products are separated by analytical HPLC with a reversed-phase column (100-5C18) using a flow rate of 1 ml/min and a linear gradient of 5-25% CH3CN in a 10 mM triethyl ammonium acetate buffer at pH 7.5 for 20 minutes.
(§4) were used as primer in an amplification reaction under standard conditions using the ntd gene of L. fermentum cloned in pSU19 (pLF6) as DNA matrix. The amplification product was digested by the restriction enzymes Nde1 and BamH1 for 2 hours at 37° C., purified on agarose gel and inserted into the plasmid pET24a digested by the same enzymes then the ligation mixture is used to transform the strain β 2033. The plasmid DNA from the colonies was prepared and digested by the enzymes Nde1 and BamH1. […]
as §2
(§5) The enzymatic activities of the native and mutant N-deoxyribosyl transferases of L. leichmannii (LL and LL G9S) and of L. fermentum (LF and LFA15T) in the exchange reactions dT+C ? dC+T, ddT+C ? ddC+T and d4T+C ? d4C+T were evaluated starting from crude extracts or purified proteins.
(§6) These different values were measured according to the protocol described in the literature [P A Kaminski (2002) “Functional cloning, heterologous expression and purification of two different N-deoxyribosyl transferases from Lactobacillus helveticus” J. Biol. Chem; vol. […]

[3] = exchange reaction d4T + C (transfer of didehydroribose), specific activity of N-deoxyribosyl transferases; type: biochemical; details: for specific activity, d4T + C: relative, 100% = specific activity of NTD of L. leichmannii (LL) in dT + C, crude extracts or purified proteins
Protocol: (§7) The cells are then centrifuged at 4000 rpm for 30 minutes at 4° C., the pellet is resuspended in 10 ml of phosphate buffer (Na2HP04+NaH2PO4) at 50 mM (pH=7.5). After centrifugation, the pellet is resuspended in 1 ml of the same buffer. The cells, preserved in ice, are then subjected to three cycles of 30 s of sonication and 30 s of rest. After centrifugation at 12000 rpm for 2×15 minutes at 4° C., the supernatants are recovered and stored at −20° C.
as §3
(§8) The cells are then centrifuged for 15′ at 4000 rpm at 4° C., washed in 50 ml of phosphate buffer then the pellet obtained after centrifugation is preserved overnight at −20° C. The bacterial pellet resuspended in 20 ml of phosphate buffer is then lysed by passage through a French press at 14000 psi. The lysate is centrifuged for 90′ at 50,000 rpm. The supernatant containing the soluble proteins is then precipitated with ammonium sulphate (40% saturation). […] The fractions are then analyzed by SDS-PAGE gel and the enzymatic activity determined. […] The protein concentration is determined by measuring the OD at 280 nm. […]
as §5

[4] = exchange reaction ddT + C (transfer of dideoxyribose), specific activity of N-deoxyribosyl transferases; type: biochemical; details: for specific activity, ddT + C: relative, 100% = specific activity of NTD of L. leichmannii (LL) in dT + C, crude extracts or purified proteins
Protocol: as §7, §3, §8, §5

[5] = substrate: Cc1cn([C@H]2C[C@H](O)[C@@H](CO)O2)c(=O)[nH]c1=O; assay: Enzymatic activity tests (dT+C, ddT+C and d4T+C reactions), native enzyme LF; type: biochemical, Lactobacillus fermentum; details: other: native LF; deoxyribosyl donor + C (cytosine); 37.0 °C
Protocol: as §3
(§9) were used as primer in an amplification reaction under standard conditions using the ntd gene of L. fermentum cloned in pSU19 (pLF6) as DNA matrix. The amplification product was digested by the restriction enzymes Nde1 and BamH1 for 2 hours at 37° C., purified on agarose gel and inserted into the plasmid pET24a digested by the same enzymes then the ligation mixture is used to transform the strain β 2033. The plasmid DNA from the colonies was prepared and digested by the enzymes Nde1 and BamH1. Those, the sequence of which was correct, were used to transform the strain BL21 (DE3)/plysS (Novagen). The plasmid DNA of the mutant pSU19NLFA15T selected previously was prepared then digested by the enzymes Nde1 and BamH1. The corresponding fragment Nde1-BamH1 was then inserted into the plasmid pET24a digested by the same enzymes in order to produce the expression plasmid pETLFA15T useful to the expression of the mutated protein. A strain of E. coli transformed using the plasmid pETLFA15T was deposited at the CNCM (INSTITUT PASTEUR, 25 rue du Docteur Roux, F-75724 PARIS Cedex 15) on 22 Mar. 2004 under accession number I-3192. The overproduction of the two N-deoxyribosyl transferases, native and mutated, was obtained from cultures of this strain in 500 ml of LB medium supplemented with Km and Cm. These cultures were induced at an OD600=0.6 by the addition of IPTG (0.4 mM), the incubation being continued for 2 hours 30 minutes at 37° C.
(§10) The cells are then centrifuged for 15′ at 4000 rpm at 4° C., washed in 50 ml of phosphate buffer then the pellet obtained after centrifugation is preserved overnight at −20° C. The bacterial pellet resuspended in 20 ml of phosphate buffer is then lysed by passage through a French press at 14000 psi. The lysate is centrifuged for 90′ at 50,000 rpm. The supernatant containing the soluble proteins is then precipitated with ammonium sulphate (40% saturation). The precipitate obtained after centrifugation at 13900 rpm (20,000 g) for 30′ at 4° C. is resuspended in 1 ml of 100 mM phosphate buffer, pH 7.5, 1.5 M NaCl, then deposited on a Sephacryl S200 gel filtration column (Amersham-Pharmacia). The fractions are then analyzed by SDS-PAGE gel and the enzymatic activity determined. […] The protein concentration is determined by measuring the OD at 280 nm.
(§11) The measurement of the enzymatic activities is carried out as described in paragraph 4.2.
as §5
(§12) These different values were measured according to the protocol described in the literature [P A Kaminski (2002) “Functional cloning, heterologous expression and purification of two different N-deoxyribosyl transferases from Lactobacillus helveticus” J. Biol. Chem; vol. 277; 14400-14407]. […] The activities are increased respectively by 60% and 54%.

[6] = substrate: Cc1cn([C@H]2CC[C@@H](CO)O2)c(=O)[nH]c1=O; assay: as above; type: biochemical, Lactobacillus fermentum; details: other: native LF; deoxyribosyl donor + C (cytosine); 37.0 °C
Protocol: as §3, §9, §10, §11, §5, §12

[7] = substrate: Cc1cn([C@H]2C=C[C@@H](CO)O2)c(=O)[nH]c1=O; assay: as above; type: biochemical, Lactobacillus fermentum; details: other: native LF; deoxyribosyl donor + C (cytosine); 37.0 °C
Protocol: as §3, §9, §10, §11, §5, §12

[8] = exchange reaction dT + C (transfer of deoxyribose), specific activity of N-deoxyribosyl transferases; type: biochemical; details: for specific activity, dT + C: relative, 100% = specific activity of NTD of L. leichmannii (LL) in dT + C, crude extracts or purified proteins
Protocol: as §7, §3, §8, §5

[9] = enzymatic activity test (kinetic constants), d4T+C reaction; type: biochemical
Protocol: as §12

[10] = substrate: Cc1cn([C@H]2C[C@H](O)[C@@H](CO)O2)c(=O)[nH]c1=O; assay: Enzymatic activity tests (dT+C, ddT+C and d4T+C reactions), mutated enzyme LFA15T; type: biochemical, Lactobacillus fermentum; details: other: mutant LFA15T; deoxyribosyl donor + C (cytosine); 37.0 °C
Protocol: as §1, §3
as §4, with “BamH1. Those, the sequence of which was correct, were used to transform the strain BL21 (DE3)/plysS (Novagen). The plasmid DNA of the mutant pSU19NLFA15T selected previously was prepared then digested by the enzymes Nde1 and BamH1. The corresponding fragment Nde1-BamH1 was then inserted into the plasmid pET24a digested by the same enzymes in order to produce the expression plasmid pETLFA15T useful to the expression of the mutated protein.” for “BamH1.”
as §2, §5, §6

[11] = substrate: Cc1cn([C@H]2CC[C@@H](CO)O2)c(=O)[nH]c1=O; assay: as above; type: biochemical, Lactobacillus fermentum; details: other: mutant LFA15T; deoxyribosyl donor + C (cytosine); 37.0 °C
Protocol: as §1, §3
as §4, with “BamH1. Those, the sequence of which was correct, were used to transform the strain BL21 (DE3)/plysS (Novagen). The plasmid DNA of the mutant pSU19NLFA15T selected previously was prepared then digested by the enzymes Nde1 and BamH1. The corresponding fragment Nde1-BamH1 was then inserted into the plasmid pET24a digested by the same enzymes in order to produce the expression plasmid pETLFA15T useful to the expression of the mutated protein.” for “BamH1.”
as §2, §5, §6

[12] = enzymatic activity test (kinetic constants), ddT+C reaction; type: biochemical
Protocol: as §12

[13] = mutant LFA15T versus native enzyme LF
[14] = catalytic effectiveness Kcat/Km
[15] = mutated enzyme versus native enzyme

Molecule: Cc1cn([C@H]2C[C@H](O)[C@@H](CO)O2)c(=O)[nH]c1=O [dT]
Kcat [1]: 0.242 µmol/s/µg
Kcat [2]: 0.665 µmol/s/µg

Molecule: Cc1cn([C@H]2CC[C@@H](CO)O2)c(=O)[nH]c1=O [ddT]
Kcat [1]: 0.156 µmol/s/µg
Kcat [2]: 0.038 µmol/s/µg

B1: Lactobacillus fermentum N-deoxyribosyl transferase (NTD, LF), native/wild type, SEQ ID No. 2 (Limosilactobacillus fermentum) (protein)
chain: MKNTDPVANTKIYLATSFFNEEQRARIPQALAQLEANPTVGVVHQPFDFQYKDARVDSDPAGVFGSLEWQIATYNNDLNAVGTSDVCVALYDMDQIDEGICMEIGMFVALHKPIVLLPFTKKDKSAYEANLMLARGVTTWLEPNDFSPLKDFNFNHPMAQPFPPFKVF
notes: crude extract or purified
specific activity, d4T + C [3]: 2.1%
specific activity, ddT + C [4]: 0.9%
Km [5]: 124 µM
Vmax [5]: 6.65 µmol/s
Km [6]: 80 µM
Vmax [6]: 5.7 µmol/s
Km [7]: 1250 µM
Vmax [7]: 24 µmol/s
specific activity, dT + C [8]: 76.5%

times more effective than native enzyme LF, d4T+X exchange [9, 14]: 7.5 times
times more effective than native enzyme LF, ddT+X exchange [12, 14]: 60 times
B2: Lactobacillus fermentum N-deoxyribosyl transferase (NTD) variant LFA15T, mutation A15T, SEQ ID No. 4 (Limosilactobacillus fermentum; A15T) (protein)
chain: MKNTDPVANTKIYLTTSFFNEEQRARIPQALAQLEANPTVGVVHQPFDFQYKDARVDSDPAGVFGSLEWQIATYNNDLNAVGTSDVCVALYDMDQIDEGICMEIGMFVALHKPIVLLPFTKKDKSAYEANLMLARGVTTWLEPNDFSPLKDFNFNHPMAQPFPPFKVF
notes: crude extract or purified
factor by which activity is increased, transfer of didehydroribose [3, 13]: 35
specific activity, d4T + C [3]: 73.5%
factor by which activity is increased, transfer of dideoxyribose [4, 13]: 3
specific activity, ddT + C [4]: 2.5%
increase of catalytic activity on d4T [9, 15]: 60%
Km [10]: 371 µM
Vmax [10]: 9.7 µmol/s
Km [11]: 53 µM
Vmax [11]: 7.8 µmol/s
increase of catalytic activity on ddT [12, 15]: 54%
factor by which activity is reduced, transfer of deoxyribose [8, 13]: 7
specific activity, dT + C [8]: 10.7%
